Holding throughout (experiment): cell-based or functional assay
Assay [1] concerns the target T1, human PDL1 stably expressed on CHO cells (human, UniProt Q9NZQ7 19-290).
The target in assay [2] is T1, human PDL1 stably expressed on CHO cells. This is another data set of the same source.
Assay [3] has the same target. The source holds these as a separate data set.
The target is the same in assay [4]. The source holds these as a separate data set.

The results in this text go back to patent US20250320297A1 (SHANGHAI HENLIUS BIOTECH, published 2025).

T1 sequence (Q9NZQ7 19-290 limits assumed): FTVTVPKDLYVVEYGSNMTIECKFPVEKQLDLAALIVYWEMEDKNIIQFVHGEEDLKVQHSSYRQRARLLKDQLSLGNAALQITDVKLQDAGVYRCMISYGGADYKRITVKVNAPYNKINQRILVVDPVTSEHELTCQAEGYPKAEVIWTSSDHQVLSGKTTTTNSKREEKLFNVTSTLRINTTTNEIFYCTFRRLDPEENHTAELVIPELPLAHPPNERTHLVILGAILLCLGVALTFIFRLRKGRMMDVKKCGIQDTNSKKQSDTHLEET

B1: 10A4 VHH-Fc (chimeric bivalent antibody) (antibody, human IgG1, V domains shown)
VH: QVKLEESGGGLVMAGGSLRLSCAASGGPFMSYAMGWFRQAPGKEREFVAAIRWNGISTFYADSVKGRFTVSRDNGKNMAFLQMNSLKPEDTAVYYCAAAQTIVTVPENYEYHYWGQGTQVTVSS
In the case of B1, the “EC50; NFAT luciferase reporter (RLU), whole cell PDL1/PD1 blocking assay; printed as 10A4 Parental” value in assay [1] is 3.79 nM. Further, in assay [2], the “EC50 (read off the curve); luminescence (RLU) of the NFAT reporter, PDL1 Blockade assay (CHO-PDL1) [middle panel]” value (shortened to “EC50 (read off the curve) … [middle panel]”) is about 1 nM. For the same molecule, the “EC50; NFAT luciferase reporter (RLU), CHO cells with human PDL1 co-incubated with Jurkat cells with human PD1 and NFAT reporter, blocking of PDL1/PD1” value in assay [3] came to 0.242 nM.

B2: 2F9 VHH-Fc (antibody, human IgG1, V domains shown)
VH: QVQLVESGGGVVQPGRSLRLSCAASGGPFMSYAMGWFRQAPGKEREFVAAIRWSGISTFYADSVKGRFTISRDNSKNTLYLQMNSLRAEDTAVYYCAAAQTIVTVPENYEFDYWGQGTQVTVSS
For B2, the “EC50 (read off the curve); luminescence (RLU) of the NFAT reporter, PDL1 Blockade assay (CHO-PDL1) [top panel]” value (from here on “EC50 (read off the curve) … [top panel]”) in assay [2] was about 2 nM.

B3: 5G10 VHH-Fc (antibody, human IgG1, V domains shown)
VH: QVQLVESGGGVVQPGRSLRLSCAASGGPFMSYAMGWFRQAPGKEREFVAAIRWSGASTFYADSVKGRFTISRDNSKNTLYLQMNSLRAEDTAVYYCAAAQTIVTVPENYEFDYWGQGTQVTVSS
As to B3, in assay [2], the “EC50 (read off the curve) … [middle panel]” value was about 2 nM.

B4: 5D8 VHH-Fc (antibody, human IgG1, V domains shown)
VH: QVQLVESGGGVVQPGRSLRLSCAASGGPFMSYAMGWFRQAPGKEREFVAAIRWSGQSTFYADSVKGRFTISRDNSKNTLYLQMNSLRAEDTAVYYCAAAQTIVTVPSNYEFDYWGQGTQVTVSS
In the case of B4, the “EC50 (read off the curve) … [middle panel]” value in assay [2] was about 2 nM.

B5: 1E4 VHH-Fc (antibody, human IgG1, V domains shown)
VH: QVQLVESGGGVVQPGRSLRLSCAASGGPFMSYAMGWFRQAPGKEREFVAAIRWNGISTFYADSVKGRFTISRDNSKNTLYLQMNSLRAEDTAVYYCAAAQTIVTVPENYEFDYWGQGTQVTVSS
For the molecule B5, the “EC50 (read off the curve) … [top panel]” value in assay [2] is about 2 nM.

B6: Humanized 10A4 GLEF-N2S VHH-Fc (antibody, human IgG1, V domains shown)
VH: EVQLVESGGGLVQPGGSLRLSCAASGGPFMSYAMGWVRQAPGKGLEFVAAIRWSGISTFYADSVKGRFTISRDNSKNTLYLQMNSLRAEDTAVYYCAAAQTIVTVPENYEYHYWGQGTQVTVSS
As for B6, in assay [1], the “EC50; NFAT luciferase reporter (RLU), whole cell PDL1/PD1 blocking assay” value is 7.37 nM. In assay [4], the “EC50; NFAT luciferase reporter (RLU), whole cell PDL1/PD1 blocking assay; printed as 10A4 GLEF-N2S” value stood at 0.824 nM. In addition, the “EC50 (read off the curve); luminescence (RLU) of the NFAT reporter, PDL1 Blockade assay (CHO-PDL1) [bottom panel]” value in assay [2] was about 2 nM.

B7: 1H2 VHH-Fc (antibody, human IgG1, V domains shown)
VH: QVQLVESGGGVVQPGRSLRLSCAASGGPFMSYAMGWFRQAPGKEREFVAAIRWSGLSTFYADSVKGRFTISRDNSKNTLYLQMNSLRAEDTAVYYCAAAPTIVTVPENYEFDYWGQGTQVTVSS
Take B7: the “EC50 (read off the curve) … [top panel]” value in assay [2] is about 2 nM.

B8: Humanized 10A4 GLEF VHH-Fc (antibody, human IgG1, V domains shown)
VH: EVQLVESGGGLVQPGGSLRLSCAASGGPFMSYAMGWVRQAPGKGLEFVAAIRWNGISTFYADSVKGRFTISRDNSKNTLYLQMNSLRAEDTAVYYCAAAQTIVTVPENYEYHYWGQGTQVTVSS
Regarding B8, the “EC50; NFAT luciferase reporter (RLU), whole cell PDL1/PD1 blocking assay” value in assay [1] was 8.3 nM.

B9: 3D5 VHH-Fc (antibody, human IgG1, V domains shown)
VH: QVQLVESGGGVVQPGRSLRLSCAASGGPFMSYAMGWFRQAPGKEREFVAAIRWSGHSTFYADSVKGRFTISRDNSKNTLYLQMNSLRAEDTAVYYCAAAQTISTVPENYEFDYWGQGTQVTVSS
As to B9, the “EC50 (read off the curve) … [middle panel]” value in assay [2] is about 1 nM.

B10: 1G12 VHH-Fc (antibody, human IgG1, V domains shown)
VH: QVQLVESGGGVVQPGRSLRLSCAASGGPFMSYAMGWFRQAPGKEREFVAAIRWSGLSTFYADSVKGRFTISRDNSKNTLYLQMNSLRAEDTAVYYCAAAQTIVTVPENYNFDYWGQGTQVTVSS
Take B10: the “EC50 (read off the curve) … [middle panel]” value in assay [2] is about 1 nM.

B11: 1F6 VHH-Fc (antibody, human IgG1, V domains shown)
VH: QVQLVESGGGVVQPGRSLRLSCAASGGPFMSYAMGWFRQAPGKEREFVAAIRWSGKSTFYADSVKGRFTISRDNSKNTLYLQMNSLRAEDTAVYYCAAAQTIVTVPESYEFDYWGQGTQVTVSS
Consider B11, for which, in assay [2], the “EC50 (read off the curve) … [top panel]” value is about 2 nM.
